Target: mKO2-Nrf2 fusion molecule (mKO2 fused to amino acids 1-100 of human Nrf2, released from the probe reagent mKO2-Nrf2-100-T2A-Keap1 by self-cleavage at T2A) (human) (UniProt Q16236)
Experiment: cell-based or functional assay

UniProt Q16236, sequence (Q16236 other isoform, or with tags, fused parts or gaps): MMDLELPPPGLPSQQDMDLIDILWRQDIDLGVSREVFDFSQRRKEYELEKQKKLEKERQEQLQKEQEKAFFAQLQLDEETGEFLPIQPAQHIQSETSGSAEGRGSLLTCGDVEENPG

Substance: human Keap1 (regulatory factor, released from mKO2-Nrf2-100-T2A-Keap1 by self-cleavage at T2A) (from UniProt Q14145 1-624)
- fluorescent intensity of mKO2 in HeLa cells after addition of DEM (oxidative stress inducer) at 100 µM: 10 times
